Values joined by “and” are separate entries in the source; they are usually repeats but may differ in a detail not shown here. Equal entries are not always repeated.
Experiments:
[1] = molecular target: mouse serum albumin (MSA) (Mus musculus, UniProt P07724); assay: Isothermal titration calorimetry (VP-ITC) of polypeptide carriers and DOX micelles with mouse albumin; format: binding; details: PBS pH 7.4, 37° C.
Method: Interaction with albumin. Interaction of CP monomers and micelles with human and mouse albumin was analyzed by isothermal titration calorimetry (ITC).

[2] = Canine pharmacokinetics; details: dogs
Description: Canine pharmacokinetics and toxicities. […] All procedures and protocols involving care, handling, and dosing for this study were reviewed and approved by the Institutional Animal Care and Use Committee (IACUC) at North Carolina State University College of Veterinary Medicine, which is an AAALAC-accredited facility. The animals' health status were monitored daily by the animal technicians and veterinary staff, paying particular attention for signs of gastrointestinal toxicities including vomiting, diarrhea, lethargy, and inappetence. If noted, supportive care was provided. […] 2 mL blood samples were drawn from jugular vein at 40 s, 15 and 30 min, 2, 4, 8, 24, 48, and 72 h after injection, diluted into 400 μL heparinized PBS (1000 UmL^−1). Sample processing and analysis were performed as with murine pharmacokinetics studies.

[3] = Canine hematology one week after administration; format: in vivo, dogs (beagles and hounds); details: dogs
Description: (§1) Canine pharmacokinetics and toxicities. […] If noted, supportive care was provided.

[4] = Canine serum chemistry one week after administration; format: in vivo, dogs (beagles and hounds); details: dogs
Description: as §1

[5] = Thermal turbidimetry (transition temperature); format: physicochemical; details: PBS (FIG. 8D)
Method: Thermal Turbidimetry. Thermal profiles of CPs and CP conjugates were determined by measuring the transition temperature (Tt) over a range of concentrations (5, 10, 25, 50, and 100 uM) in PBS, FBS, and MS using a Cary UV-visible spectrophotometer equipped with temperature controller (Agilent Technologies, CA, USA). […] The transition temperature was defined as the maximum first derivative of the optical density.

[6] = Dynamic and static light scattering; format: physicochemical; details: for Rh / Nagg / Rg: PBS; for Nagg / Rg: SLS
Method: Light Scattering. Dynamic and static light scattering measurements were performed using an ALV/CGS-3 goniometer system (Germany). […] To study the effect of albumin binding on micellar self-assembly, mouse albumin was added to the samples at 1:1 albumin-CP molar ratio in PBS. Measurements were obtained at 25° C. and 37° C. for angles between 30-150° at 5° increments with each angle consisting of 3 runs and 10 s each at each run. Hydrodynamic radius (Rh) was determined by dynamic light scattering. The radius of gyration (Rg) and the average molecular weight of the particle (MW) were calculated from the slope and intercept of a partial Zimm plot, respectively, using ALV/Dynamic and Static FIT and PLOT software and according. The micelle aggregation number Nagg, or the number of polypeptide chains per nanoparticle, was calculated by dividing the micelle molecular weight by the molecular weight of the polypeptide monomer.
Size and morphology of CP conjugated micelles. The radius and the aggregation number of the self-assembled micelles were determined, in the presence and absence of albumin, by dynamic and static light scattering at 37° C. using an ALV/CGS-3 goniometer system (Germany). Freeze fracture electron microscopy was performed to visualize the micelles and estimate their radius and morphology.

[7] = Biodistribution in C26 tumor-bearing mice; format: in vivo, Balb/C mice; details: 2 h and 24 h time points
Method: Cell culture and tumor inoculation.
Biodistribution. […] At 2 and 24 h after injection, tissues (tumor, muscle, heart, lung, liver, spleen and kidney) were removed, weighed and suspended in 1.0 mL acidified isopropanol (75 mM HCl, 10% water, 90% isopropanol). Tissues were then homogenized using 2 mm diameter zirconia beads and a MiniBeadbeater-1TM (Biospec; Bartlesville, OK) for 2 min at 5,000 beats per minute and were incubated overnight at 4° C. in the dark. The isopropanol extracts were then vortexed, and centrifuged (14,000 RPM, 10 min, 4° C.) and 125 uL of the supernatant was loaded onto a black 96-well plate (BD Biosciences) in duplicate. […] To correct for background tissue fluorescence, tissues were removed from three untreated control mice and were processed similarly. For each tissue, a background (counts per mg tissue) curve was created using 2-fold dilutions of the processed tissues in acidified isopropanol.

[8] = test system: C26 murine colon adenocarcinoma cells
Method: C26 murine colon adenocarcinoma cells were seeded (5000 cells/well) in a 96-well plate. After 24 h, cells were treated in triplicate with 3-fold serial dilutions of drugs beginning with 100 uM. After 72 h incubation, 20 μL of CellTiter 96 AQueous™ (Promega; Madison, WI) 3-(4,5-dimethlthiazol-2-yl)-5-(3-carboxymethoxphenyl)-2-(4-sulfophenyl)-2H-tetrazolium (MTS) reagent was added to each well followed by 3 h incubation at 37° C. The absorbance at 490 nm was determined using a Victor3™ microplate reader (Perkin Elmer; Waltham, MA). For each plate, blank wells (with no cells) were defined as 0% viability and wells treated with PBS were defined as 100% viability. The background absorbance at 490 nm was corrected by subtracting the average absorbance of the blank wells from each well. The percent viability was defined as the absorbance of each well normalized to the absorbance of wells treated with PBS. Inhibitory concentration (IC 50) values were calculated using a four-parameter logistic fit in the Prism program (GraphPad Software, San Diego, CA, USA).

[9] = cephalic vein, 27 DOX Equiv/m^−2 BSA or 0.9 mg DOX Equiv/kg BW
[10] = one week after administration, individual subjects

Sequence of mouse serum albumin (MSA) (P07724 25-608): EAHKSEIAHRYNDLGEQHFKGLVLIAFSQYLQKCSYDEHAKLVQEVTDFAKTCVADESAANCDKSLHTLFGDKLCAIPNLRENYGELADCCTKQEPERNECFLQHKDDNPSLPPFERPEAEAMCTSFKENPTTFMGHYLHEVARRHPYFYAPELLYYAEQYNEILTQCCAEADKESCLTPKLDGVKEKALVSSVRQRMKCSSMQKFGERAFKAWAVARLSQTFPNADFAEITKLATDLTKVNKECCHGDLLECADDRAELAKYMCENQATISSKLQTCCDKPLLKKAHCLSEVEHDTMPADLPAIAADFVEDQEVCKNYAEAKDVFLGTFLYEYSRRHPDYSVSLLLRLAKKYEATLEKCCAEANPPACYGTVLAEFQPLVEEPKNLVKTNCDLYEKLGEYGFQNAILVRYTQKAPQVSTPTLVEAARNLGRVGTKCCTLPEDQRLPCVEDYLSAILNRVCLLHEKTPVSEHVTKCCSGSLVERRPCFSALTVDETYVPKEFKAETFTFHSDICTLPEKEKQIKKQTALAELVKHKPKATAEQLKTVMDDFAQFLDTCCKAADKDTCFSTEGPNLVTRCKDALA

B1: ABDN-CP-DOX (conjugate)
chain: LAEAKVLANRELDKYGVSDYYKNLINNAKTVEGVKALIDEILAALPVPGAGVPGAGVPGAGVPGAGVPGAGVPGAGVPGAGVPGAGVPGAGVPGAGVPGAGVPGAGVPGAGVPGAGVPGAGVPGAGVPGAGVPGAGVPGAGVPGAGVPGAGVPGAGVPGAGVPGAGVPGAGVPGAGVPGAGVPGAGVPGAGVPGAGVPGAGVPGAGVPGAGVPGAGVPGAGVPGAGVPGAGVPGAGVPGAGVPGAGVPGAGVPGAGVPGAGVPGAGVPGAGVPGAGVPGAGVPGAGVPGAGVPGAGVPGAGVPGAGVPGAGVPGAGVPGAGVPGAGVPGAGVPGAGVPGAGVPGAGVPGAGVPGAGVPGAGVPGAGVPGAGVPGAGVPGAGVPGAGVPGAGVPGAGVPGAGVPGAGVPGAGVPGAGVPGAGVPGAGVPGAGVPGAGVPGAGVPGAGVPGAGVPGAGVPGAGVPGAGVPGAGVPGAGVPGAGVPGAGVPGAGVPGAGVPGAGVPGAGVPGAGVPGAGVPGAGVPGAGVPGAGVPGAGVPGAGVPGAGVPGAGVPGAGVPGAGVPGAGVPGAGVPGAGVPGAGVPGAGVPGAGVPGAGVPGAGVPGAGVPGAGVPGAGVPGAGVPGAGVPGAGVPGAGVPGAGVPGAGVPGAGVPGAGVPGAGVPGAGVPGAGVPGAGVPGAGVPGAGVPGAGVPGAGVPGAGVPGAGVPGAGVPGAGVPGAGVPGAGVPGAGVPGAGVPGAGVPGAGVPGAGVPGAGVPGAGCGGCGGCGGCGGCGGCGGCGGCGG
[1]
  binding stoichiometry N: 1.01±0.00
[2]
  AUC, fold larger than that of CP-DOX: six-fold
  plasma half-life, fold greater than that of CP-DOX: three-fold
[2]; [9]
  Apparent distribution volume VD: 0.02 ± 0.00 mL/g
  Distribution half-life β t1/2: 1.705 ± 0.822 h
  Elimination rate constant kg: 0.02 ± 0.00 h⁻¹
  Plasma clearance CL: 0.0003 ± 0.0000 mL/h/g
  Plasma to tissue rate constant kpt: 0.06 ± 0.03 h⁻¹
  Tissue to plasma rate constant ktp: 0.34 ± 0.17 h⁻¹
[2]; cephalic vein, 27 DOX Equiv/m^−2 BSA or 0.9 mg DOX Equiv/kg BW, plasma DOX
  Elimination half-life α t1/2: 30.8 ± 2.0 h
[3]; [10]
  Abonormal Lymphs: 0.157 10^3/μL and 0.561 10^3/μL
  Hematocrit: 42.7% and 43.9%
  Hemoglobin: 14.7 g/dL and 14.6 g/dL
  Lymphocytes: 1.572 10^3/μL and 1.122 10^3/μL
  MCH: 24.6 pg and 23.6 pg
  MCHC: 34.3 g/dL and 33.2 g/dL
  MCV: 71.7 fL and 71 fL
  MPV: 12.2 fL and 11.9 fL
  Monocytes: 0.314 10^3/μL and 0.21 10^3/μL
  PCT: 0.28% and 0.25%
  Packed Cell-Volume: 42%
  Plasma Protein: 6.2 g/dL and 5.8 g/dL
  Platelets: 228 X10^3/μL and 208 X10^3/μL
  RBC: 5.97 X10^6/μL and 6.19 X10^6/μL
  RDW: 12.8% and 11.7%
  Reticulocyte #: 0.025 X10^6/μL and 0.014 X10^6/μL
  Reticulocyte %: 0.43% and 0.23%
  Reticulocyte Absolute: 25000 µL⁻¹ and 14000 µL⁻¹
  Segmented Neutrophils: 5.502 10^3/μL and 4.276 10^3/μL
  WBC: 7.86 X10^3/μL and 7.01 X10^3/μL
[3]; one week after infusion
  abnormalities in blood hematology (in words): no hematology or serum chemistry abnormalities
[4]; [10]
  ALT: 18 IU/L and 21 IU/L
  AST: 20 IU/L and 31 IU/L
  Alb/Glob Ratio: 1.73 and 1.57
  Albumin: 3.8 g/dL and 3.6 g/dL
  Alkaline Phosphatase: 26 IU/L and 31 IU/L
  Amylase: 597 IU/L and 677 IU/L
  Anion Gap: 21 and 20.4
  Bicarbonate: 22 mmol/L and 21 mmol/L
  Bilirubin-Total: <0.2 mg/dL
  CK: 141 IU/L and 296 IU/L
  Calcium: 10.3 mg/dL and 10.7 mg/dL
  Chloride: 109 mmol/L and 111 mmol/L
  Cholesterol: 153 mg/dL and 94 mg/dL
  Creatinine: 0.7 mg/dL
  GGT: <3 IU/L
  Globulin: 2.2 g/dL and 2.3 g/dL
  Glucose: 90 mg/dL and 82 mg/dL
  Lipase: 57 IU/L
  Magnesium: 1.9 mg/dL and 2.2 mg/dL
  Na/K Ratio: 37 and 33.6
  Osomolality-Calc.: 293.8 mOsm/kg and 293.4 mOsm/kg
  Phosphorus: 4.1 mg/dL and 4.7 mg/dL
  Potassium: 4 mmol/L and 4.4 mmol/L
  Protein-Total: 6 g/dL and 5.9 g/dL
  Sodium: 148 mmol/L
  Urea Nitrogen: 17 mg/dL and 15 mg/dL
[4]; one week after infusion
  abnormalities in blood serum chemistry (in words): no hematology or serum chemistry abnormalities
[5]
  transition temperature after drug (DOX) conjugation: 44 °C
[6]; 22 ° C.
  ρ = Rg/Rh: 0.62
  Nagg: 34.97
  Rg: 36.95 nm
[6]; 22 ° C., DLS
  Rh: 59.0 nm and 59.00 nm
[6]; 37 ° C.
  ρ = Rg/Rh: 0.766
  Nagg: 42.04
  Rg: 34.97 nm
[6]; 37 ° C., DLS
  Rh: 45.63 nm
[6]; DLS
  nanoparticle formation (in words): form nanoparticles
[6]; body temperature (37° C.)
  aggregation (in words): remain aggregate-free
[6]; room temperature (25° C.)
  aggregation (in words): Neither ABDN-CP-DOX nor ABDH-CP-DOX conjugates aggregate
[7]
  distribution to organs of the reticuloendothelial system i.e. liver and spleen (in words): significantly smaller than that of CP-DOX micelles
[8]
  IC50: 310 nM

— patent US12594347B2, “Nanoparticulate drug delivery systems” (Duke University, priority 2018, dated 2026)
